In EP1803810A1:

Columns and labels:
[1] = molecular target: human integrin αvβ5 (human) (UniProt P06756); test: flow cytometry on HMVEC-d; competitor mAb MAB 1961
[2] = molecular target: human integrin α5β1 (human) (UniProt P08648); test: flow cytometry on HMVEC-d; competitor mAb SAM-1
[3] = molecular target: human integrin αvβ3 (human) (UniProt P06756); test: flow cytometry on HMVEC-d; competitor mAb LM609
α6β1.α6β4 (human) = α6β1.α6β4 (human) (UniProt P23229); test: flow cytometry on HMVEC-d; competitor α6 integrin mAb (GoH3 and/or 439-9B)
Chain of UniProt P23229 (P23229 24-1130): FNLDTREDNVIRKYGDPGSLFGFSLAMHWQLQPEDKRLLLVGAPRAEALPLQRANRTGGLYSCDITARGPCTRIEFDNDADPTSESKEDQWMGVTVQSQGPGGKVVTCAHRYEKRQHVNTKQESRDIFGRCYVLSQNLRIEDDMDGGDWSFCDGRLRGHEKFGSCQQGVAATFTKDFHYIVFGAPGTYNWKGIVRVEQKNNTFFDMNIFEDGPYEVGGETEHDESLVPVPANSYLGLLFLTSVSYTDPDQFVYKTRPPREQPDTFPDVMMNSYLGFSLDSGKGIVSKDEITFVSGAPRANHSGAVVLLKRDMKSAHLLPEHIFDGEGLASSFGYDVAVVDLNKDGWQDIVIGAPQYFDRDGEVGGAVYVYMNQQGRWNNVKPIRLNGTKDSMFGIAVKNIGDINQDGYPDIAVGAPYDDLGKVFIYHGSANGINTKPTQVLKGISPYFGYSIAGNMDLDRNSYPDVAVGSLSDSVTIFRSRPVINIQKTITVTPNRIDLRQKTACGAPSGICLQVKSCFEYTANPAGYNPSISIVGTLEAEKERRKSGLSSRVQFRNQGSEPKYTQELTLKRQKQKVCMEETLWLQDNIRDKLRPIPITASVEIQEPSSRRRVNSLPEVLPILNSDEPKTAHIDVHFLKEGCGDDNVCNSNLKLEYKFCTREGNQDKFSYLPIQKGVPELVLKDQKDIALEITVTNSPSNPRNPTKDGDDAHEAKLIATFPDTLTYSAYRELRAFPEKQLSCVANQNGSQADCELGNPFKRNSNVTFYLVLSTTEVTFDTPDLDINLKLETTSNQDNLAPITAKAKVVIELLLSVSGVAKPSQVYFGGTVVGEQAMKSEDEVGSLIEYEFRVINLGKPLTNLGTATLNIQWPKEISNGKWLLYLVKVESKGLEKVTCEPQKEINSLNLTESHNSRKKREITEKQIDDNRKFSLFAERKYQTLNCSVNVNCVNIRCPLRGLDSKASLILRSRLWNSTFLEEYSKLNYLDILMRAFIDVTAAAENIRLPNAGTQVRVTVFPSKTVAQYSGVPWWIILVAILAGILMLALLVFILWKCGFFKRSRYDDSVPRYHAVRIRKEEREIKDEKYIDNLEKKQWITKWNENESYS

[4] = molecular target: human integrin α2β1 (human) (UniProt P17301); test: flow cytometry on HMVEC-d; competitor mAb BHA2.1
Chain of UniProt P17301 (P17301 30-1181, chain 1 of 2): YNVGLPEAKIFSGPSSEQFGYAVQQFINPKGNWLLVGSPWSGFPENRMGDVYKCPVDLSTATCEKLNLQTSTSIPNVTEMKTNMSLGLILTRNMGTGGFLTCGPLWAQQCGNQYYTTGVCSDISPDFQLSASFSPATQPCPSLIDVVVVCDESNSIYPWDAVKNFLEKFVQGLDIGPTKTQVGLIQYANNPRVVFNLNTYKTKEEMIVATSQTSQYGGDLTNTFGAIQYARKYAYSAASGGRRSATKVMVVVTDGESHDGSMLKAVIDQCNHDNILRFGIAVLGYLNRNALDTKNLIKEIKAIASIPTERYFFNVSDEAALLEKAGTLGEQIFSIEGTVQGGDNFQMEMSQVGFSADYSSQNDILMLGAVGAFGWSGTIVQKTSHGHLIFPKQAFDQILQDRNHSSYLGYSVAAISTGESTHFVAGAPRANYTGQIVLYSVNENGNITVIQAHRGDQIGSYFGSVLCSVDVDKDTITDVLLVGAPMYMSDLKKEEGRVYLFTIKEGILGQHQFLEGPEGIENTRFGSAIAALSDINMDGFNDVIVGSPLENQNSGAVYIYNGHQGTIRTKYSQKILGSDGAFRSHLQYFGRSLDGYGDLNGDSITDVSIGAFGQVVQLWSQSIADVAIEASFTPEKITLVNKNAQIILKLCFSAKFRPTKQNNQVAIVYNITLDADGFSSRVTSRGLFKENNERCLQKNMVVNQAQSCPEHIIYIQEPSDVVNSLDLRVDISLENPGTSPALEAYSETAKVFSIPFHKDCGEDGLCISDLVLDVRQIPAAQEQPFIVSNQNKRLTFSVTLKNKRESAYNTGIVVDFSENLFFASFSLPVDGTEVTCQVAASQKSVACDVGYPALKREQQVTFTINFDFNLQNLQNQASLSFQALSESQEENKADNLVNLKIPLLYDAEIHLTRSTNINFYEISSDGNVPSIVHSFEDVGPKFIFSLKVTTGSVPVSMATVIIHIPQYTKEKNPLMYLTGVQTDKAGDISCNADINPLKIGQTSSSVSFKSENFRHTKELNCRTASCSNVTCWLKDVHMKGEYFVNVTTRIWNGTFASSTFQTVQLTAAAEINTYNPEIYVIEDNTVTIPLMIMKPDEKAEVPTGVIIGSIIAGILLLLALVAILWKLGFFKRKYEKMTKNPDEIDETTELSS
Chain of UniProt P17301 (P05556 21-798, chain 2 of 2, further chain): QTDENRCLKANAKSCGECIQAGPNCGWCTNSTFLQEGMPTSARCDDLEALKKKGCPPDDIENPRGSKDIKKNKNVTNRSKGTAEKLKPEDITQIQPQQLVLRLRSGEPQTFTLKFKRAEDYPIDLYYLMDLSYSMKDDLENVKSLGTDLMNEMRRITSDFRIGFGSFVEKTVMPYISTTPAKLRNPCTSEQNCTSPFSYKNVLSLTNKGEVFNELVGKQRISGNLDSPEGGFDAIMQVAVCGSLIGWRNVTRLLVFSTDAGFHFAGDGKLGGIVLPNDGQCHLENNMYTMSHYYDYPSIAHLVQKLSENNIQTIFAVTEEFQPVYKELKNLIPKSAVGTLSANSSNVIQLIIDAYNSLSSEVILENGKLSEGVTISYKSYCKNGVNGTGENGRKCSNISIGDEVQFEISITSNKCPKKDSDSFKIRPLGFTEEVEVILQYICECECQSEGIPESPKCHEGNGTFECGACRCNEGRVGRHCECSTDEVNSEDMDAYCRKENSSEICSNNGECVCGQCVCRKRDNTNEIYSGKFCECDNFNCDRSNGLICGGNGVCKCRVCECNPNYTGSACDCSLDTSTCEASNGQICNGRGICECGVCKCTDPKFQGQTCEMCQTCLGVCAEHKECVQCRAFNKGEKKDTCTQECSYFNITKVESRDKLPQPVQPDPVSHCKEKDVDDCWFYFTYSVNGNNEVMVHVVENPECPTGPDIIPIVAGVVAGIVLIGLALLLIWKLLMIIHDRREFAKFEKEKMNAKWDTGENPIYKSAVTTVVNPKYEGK

Chain of UniProt P08648 (P08648 42-1049, chain 1 of 2): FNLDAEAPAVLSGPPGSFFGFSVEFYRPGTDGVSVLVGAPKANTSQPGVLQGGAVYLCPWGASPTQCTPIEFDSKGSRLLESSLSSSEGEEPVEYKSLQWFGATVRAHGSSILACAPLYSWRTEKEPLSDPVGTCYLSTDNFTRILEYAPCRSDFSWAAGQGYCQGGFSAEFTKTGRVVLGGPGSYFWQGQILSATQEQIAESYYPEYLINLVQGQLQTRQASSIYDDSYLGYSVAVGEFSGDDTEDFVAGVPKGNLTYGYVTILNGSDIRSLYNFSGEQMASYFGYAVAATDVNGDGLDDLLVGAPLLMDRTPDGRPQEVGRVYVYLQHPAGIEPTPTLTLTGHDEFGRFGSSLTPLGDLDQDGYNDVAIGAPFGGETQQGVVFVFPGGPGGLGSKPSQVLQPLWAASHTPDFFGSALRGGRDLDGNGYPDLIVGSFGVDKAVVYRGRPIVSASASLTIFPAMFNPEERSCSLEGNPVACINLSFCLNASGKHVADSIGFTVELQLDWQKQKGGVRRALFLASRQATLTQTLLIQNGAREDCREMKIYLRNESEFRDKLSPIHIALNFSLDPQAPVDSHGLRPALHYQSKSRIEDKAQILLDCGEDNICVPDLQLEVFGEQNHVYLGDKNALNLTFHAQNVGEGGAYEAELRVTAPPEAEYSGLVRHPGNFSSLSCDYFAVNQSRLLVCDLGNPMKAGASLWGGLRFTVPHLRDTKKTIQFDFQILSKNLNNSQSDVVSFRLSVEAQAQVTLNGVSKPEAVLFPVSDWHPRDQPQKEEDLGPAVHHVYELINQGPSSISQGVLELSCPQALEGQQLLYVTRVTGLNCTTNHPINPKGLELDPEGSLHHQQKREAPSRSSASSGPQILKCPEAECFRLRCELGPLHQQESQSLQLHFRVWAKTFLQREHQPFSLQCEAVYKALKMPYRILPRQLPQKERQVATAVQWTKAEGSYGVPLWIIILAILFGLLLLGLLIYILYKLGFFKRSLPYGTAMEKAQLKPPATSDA
Chain of UniProt P08648 (P05556 21-798, chain 2 of 2, further chain): as the sequence (P05556 21-798, chain 2 of 2, further chain) above

Row | percent inhibition of binding by integrin mAb [1] [%] | percent inhibition of binding by integrin mAb [2] [%] | percent inhibition of binding by integrin mAb [3] [%] | percent inhibition of binding by integrin mAb (α6β1.α6β4 (human)) [%] | percent inhibition of binding by integrin mAb [4] [%] | Substance
1 | 25 | 30 | 60 | – | – | ADAM-15dis-Fc (Fc fusion)
2 | – | – | 58 | – | – | ADAM-20dis-Fc (Fc fusion)
3 | – | 54 | – | – | – | ADAM-21dis-Fc (Fc fusion)
4 | – | 36 | 42 | 32 | – | ADAM-22dis-Fc (Fc fusion)
5 | – | 49 | – | 31 | 22 | ADAM-23dis-Fc (Fc fusion)
